In publication PMC10080908 (BMC Biology, 2023):

Columns and labels:
UBE2D2 = target: T1, UBE2D2 (human, UniProt P62837 1-147); assay: pull-down; in vitro: GST-RING domains on beads with UBE2D2, with or without UBXN7-UAS; Coomassie staining; details: both partners purified
T1 construct: UBE2D2 without GST; probably released from GST-UBE2D2 by GST-3C protease as told in general for the PGEX4T3-3C constructs; also called recombinant UBE2D2; source: recombinant

[1] = target: T2, UBXN7-UAS recombinant protein (human, UniProt O94888 94-284); assay: as above; details: both partners purified
T2 construct: UAS domain of human UBXN7 (aa 94-284); also called UAS domain; source: E. coli BL21, purified (Glutathione Sepharose, released by GST-3C protease)
T2 sequence (looked up): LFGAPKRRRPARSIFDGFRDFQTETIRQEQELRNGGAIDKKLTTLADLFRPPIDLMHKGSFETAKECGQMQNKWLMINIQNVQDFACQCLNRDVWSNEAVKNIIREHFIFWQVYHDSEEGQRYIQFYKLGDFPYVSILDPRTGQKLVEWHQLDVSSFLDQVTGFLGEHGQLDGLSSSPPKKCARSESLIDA

B1: GST-TOPORS-RING (domain or fragment, human, UniProt Q9NS56 68-176, looked up)
chain: MASAAKEFKMDNFSPKAGTSKLQQTVPADASPDSKCPICLDRFDNVSYLDRCLHKFCFRCVQEWSKNKAECPLCKQPFDSIFHSVRAEDDFKEYVLRPSYNGSFVTPDR
notes: human TOPORS-RING (aa 68-176); the methods tell its cloning into p3xFlag-CMV-10 only, not into the GST vector; also called minimal RING domain of TOPORS; TOPORS RING domain; source: recombinant, on Glutathione Sepharose
Does B1 bind (UBE2D2)?
Result: binds

Does B1 bind [1]?
Result: binds
